IntAct's records for PubMed 11980910

B1: Dual specificity mitogen-activated protein kinase kinase 3 (Homo sapiens), P46734 (parent)
chain: MESPASSQPASMPQSKGKSKRKKDLRISCMSKPPAPNPTPPRNLDSRTFITIGDRNFEVEADDLVTISELGRGAYGVVEKVRHAQSGTIMAVKRIRATVNSQEQKRLLMDLDINMRTVDCFYTVTFYGALFREGDVWICMELMDTSLDKFYRKVLDKNMTIPEDILGEIAVSIVRALEHLHSKLSVIHRDVKPSNVLINKEGHVKMCDFGISGYLVDSVAKTMDAGCKPYMAPERINPELNQKGYNVKSDVWSLGITMIEMAILRFPYESWGTPFQQLKQVVEEPSPQLPADRFSPEFVDFTAQCLRKNPAERMSYLELMEHPFFTLHKTKKTDIAAFVKEILGEDS

Variants of: B1
Conditions: with dyr1b_human DYRK1B

Variant | effect of a mutation on the interaction
S218E | increasing interaction
T222E | increasing interaction
